The text below walks through data of patent US20030219846A1, “Assay for activity of the ActRIIB kinase” (Pfizer Inc., priority 2002, published 2003).

The target in data set [1] is T1, his-catActRIIB kinase (Homo sapiens, UniProt Q13705).
T1 construct: His tag
As to the kind of experiment: Autoradiographic kinase assay method (substrate phosphorylation). Format: biochemical. Particulars: 1 mg/ml target peptide or 2.5 μM MBP, 10 μM ATP, [32P]-ATP, 30 minutes, ambient temperature. The protocol:
A 20 μl reaction mixture comprising 2.5 μg/ml his-catActRIIB kinase, 1 mg/ml target peptide or 2.5 μM myelin basic protein (MBP), 10 μM ATP, 10 μCi [^32P]y-ATP (6000 Ci/mmol), 1 mg/ml bovine serum albumin (BSA), and 5 mM sodium orthovanadate in 25 mM HEPES (pH 7.3) was run for 30 minutes at ambient temperature. The reaction was stopped by adding ⅓ volume of 3× Laemmli buffer with β-mercaptoethanol and trace bromphenol blue (188 mM Tris pH 6.8, 3% SDS, 24% glycerol, 25% v/v, β-mercaptoethanol). The stopped reaction was loaded directly onto a 18% polyacrylamide/tris/glycine gel without boiling. The gel was run at about 100 volts to permit proper separation, washed for five minutes in water, and equilibrated for five minutes in semi-dry blotting buffer (48 mM Tris base, 39 mM glycine, 20% methanol, 0.375% SDS). Reaction products were then blotted onto a nitrocellulose filter for 48 minutes at 20 volts in a Bio-Rad semi-dry blotting apparatus and visualized and/or quantitated by autoradiography.

Data set [2] concerns the target T1, his-catActRIIB kinase. As to the kind of experiment: Scintillation method kinase assay (TCA precipitation, filter plate). Format: biochemical. As to conditions: target peptide 176 μM or MBP 2 μM, 10 μM ATP, [33P]-ATP, 80 min, room temperature. Here is the method: A series of reaction mixtures comprising 25 mM HEPES (pH 7.3), 3 mM MgCl2, 1 mM MnCl2, 0.1 mM EDTA, 1 mM DTT, 0.2 mM sodium orthovanadate, 100 μg/ml BSA, 10 μM ATP, 0.25 μCi [^33P]y-ATP, and 16.5 μg/ml his-catActRIIB kinase was run in a total of 100 μl directly in a Durapore (Millipore) filter plate for 80 min at room temperature. The reaction was stopped by addition of an equal volume of ice cold TCA (10% or 25% v/v). After one hour at 4° C., the precipitate was collected under vacuum. The precipitate was washed five times with cold TCA. After drying overnight, scintillant was added to the well and plates counted in a Microbeta 1450 Trilux in the Paralux mode. Different reactions included either the target peptide (176 μM), MBP (2 μM), or no substrate.

For the next data set, the target named is T2, target peptide.
T2 chain: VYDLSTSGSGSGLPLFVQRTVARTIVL

Take “H2N-Val-Tyr-Asp-Leu-Ser-Thr-Ser-Gly-Ser-Gly-Ser-Gly-Leu-Pro-Leu-Phe-Val-Gln-Arg-Thr-Val-Ala-Arg-Thr-Ile-Val-Leu-COOH (H-VYDLSTSGSGSGLPLFVQRTVARTIVL-OH; not fully specified) [target peptide, 27 amino acid substrate peptide for the ActRIIB kinase assay]”: the “phosphorylation of substrate, labelled band visualized by autoradiography” value with his-catActRIIB kinase [1] was “labelled target peptide”. Moreover, the “signal from labelled substrate by scintillation counting” value with his-catActRIIB kinase [2] was “performed very well”.

B1: his-catActRIIB kinase (protein)
chain: YGHVDIHEDPGPPPPSPLVGLKPLQLLEIKARGRFGCVWKAQLMNDFVAVKIFPLQDKQSWQSEREIFSTPGMKHENLLQFIAAEKRGSNLEVELWLITAFHDKGSLTDYLKGNIITWNELCHVAETMSRGLSYLHEDVPWCRGEGHKPSIAHRDFKSKNVLLKSDLTAVLADFGLAVRFEPGKPPGDTHGQVGTRRYMAPEVLEGAINFQRDAFLRIDMYAMGLVLWELVSRCKAADGPVDEYMLPFEEEIGQHPSLEELQEVVVHKKMRPTIKDHWLKHPGLAQLCVTIEECWDHDAEARLSAGCVEERVSLIRRSVNGTTSDCLVSLVTSVTNVDLPPKESSI
In the case of B1, in the data set with myelin basic protein, the “phosphorylation of substrate, [32P]ATP autoradiography after gel electrophoresis and blotting” value is “In the reaction mixture comprising MBP, bands were visualized at 18 Kd and 40 Kd, corresponding to labelled MBP and autophosphorylated his-catActRIIB kinase, respectively”; the “phosphorylation of substrate, [33P]ATP, TCA precipitation on filter plate, scintillation counting” value is on record as “the reaction with MBP unexpectedly yields a negative result”. Besides, in the data set with target peptide, the “phosphorylation of substrate, [32P]ATP autoradiography after gel electrophoresis and blotting” value was “In the reaction mixture comprising target peptide, bands were visualized at 3 Kd and 40 Kd, corresponding to labelled target peptide and autophosphorylated his-catActRIIB kinase, respectively”; the “phosphorylation of substrate, [33P]ATP, TCA precipitation on filter plate, scintillation counting” value is “the reaction performed very well with the target peptide as a substrate”.

B2: MBP: Myelin Basic Protein, a commonly used substrate for kinase assays (protein, UniProt P02687 1-169, looked up)
Myelin basic protein: AAQKRPSQRSKYLASASTMDHARHGFLPRHRDTGILDSLGRFFGSDRGAPKRGSGKDGHHAARTTHYGSLPQKAQGHRPQDENPVVHFFKNIVTPRTPPPSQGKGRGLSLSRFSWGAEGQKPGFGYGGRASDYKSAHKGLKGHDAQGTLSKIFKLGGRDSRSGSPMARR
As to B2, in the data set with his-catActRIIB kinase [1], the “phosphorylation of substrate, labelled band visualized by autoradiography” value is given as “labelled MBP”. Moreover, the “signal from labelled substrate by scintillation counting” value with his-catActRIIB kinase [2] was “negative result”.
